{
  "source": "the supplement of paper PMC9112550",
  "about": "“Optimization of the antimicrobial peptide Bac7 by deep mutational scanning” (BMC Biology, 2022);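 note: peptides expressed intracellularly from a pBAD plasmid library in pooled LB shake-flask culture, induced with 0.3% L-arabinose, DNA abundance read by NGS, three biological replicates, DESeq2 with apeglm shrinkage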",
  "data": [
    {"system": "Escherichia coli TOP10", "test": "shrunken log2 fold change of peptide-encoding DNA abundance (4.5 h post-induction vs induction); higher = less antimicrobial activity (less host growth inhibition)", "conditions": "time post-induction: 4.5 h; library: site-saturation at positions 5, 18, 19, 20", "values": [
      {"sequence": "RRIRRRPPRLPRPRPRPRSAPRP", "shrunken log2 fold change": 0.532},
      {"sequence": "RRIRKRPPRLPRPRPRPQHIPRP", "shrunken log2 fold change": -0.243},
      {"sequence": "RRIRVRPPRLPRPRPRPCHHPRP", "shrunken log2 fold change": -0.00671},
      {"sequence": "RRIRCRPPRLPRPRPRPSECPRP", "shrunken log2 fold change": -0.0818},
      {"sequence": "RRIRTRPPRLPRPRPRPCATPRP", "shrunken log2 fold change": -0.0683},
      {"sequence": "RRIRTRPPRLPRPRPRPLERPRP", "shrunken log2 fold change": -0.0732},
      {"sequence": "RRIRIRPPRLPRPRPRPQLEPRP", "shrunken log2 fold change": 0.000806},
      {"sequence": "RRIRARPPRLPRPRPRPTFTPRP", "shrunken log2 fold change": 0.51},
      {"sequence": "RRIRARPPRLPRPRPRPYNVPRP", "shrunken log2 fold change": -0.284},
      {"sequence": "RRIRYRPPRLPRPRPRPRPQPRP", "shrunken log2 fold change": 0.438},
      {"sequence": "RRIRMRPPRLPRPRPRPEHDPRP", "shrunken log2 fold change": 1.62},
      {"sequence": "RRIRQRPPRLPRPRPRPVGFPRP", "shrunken log2 fold change": 0.00249},
      {"sequence": "RRIRYRPPRLPRPRPRPQIWPRP", "shrunken log2 fold change": -0.662},
      {"sequence": "RRIRPRPPRLPRPRPRPNHWPRP", "shrunken log2 fold change": -0.0328},
      {"sequence": "RRIRYRPPRLPRPRPRPGPAPRP", "shrunken log2 fold change": 0.0198},
      {"sequence": "RRIRDRPPRLPRPRPRPMSCPRP", "shrunken log2 fold change": -0.00207},
      {"sequence": "RRIRVRPPRLPRPRPRPLSVPRP", "shrunken log2 fold change": -0.0714},
      {"sequence": "RRIRHRPPRLPRPRPRPSDKPRP", "shrunken log2 fold change": -0.355},
      {"sequence": "RRIRNRPPRLPRPRPRPVGRPRP", "shrunken log2 fold change": 0.118},
      {"sequence": "RRIRKRPPRLPRPRPRPTGLPRP", "shrunken log2 fold change": 0.223},
      {"sequence": "RRIRQRPPRLPRPRPRPSKPPRP", "shrunken log2 fold change": -0.231},
      {"sequence": "RRIRKRPPRLPRPRPRPISLPRP", "shrunken log2 fold change": 0.00252},
      {"sequence": "RRIRSRPPRLPRPRPRPTLTPRP", "shrunken log2 fold change": 0.206},
      {"sequence": "RRIRRRPPRLPRPRPRPYRGPRP", "shrunken log2 fold change": -0.191},
      {"sequence": "RRIRYRPPRLPRPRPRPNFLPRP", "shrunken log2 fold change": -0.623},
      {"sequence": "RRIRCRPPRLPRPRPRPAMSPRP", "shrunken log2 fold change": 0.0552},
      {"sequence": "RRIRPRPPRLPRPRPRPTMNPRP", "shrunken log2 fold change": -0.0529},
      {"sequence": "RRIRWRPPRLPRPRPRPPWTPRP", "shrunken log2 fold change": 0.688},
      {"sequence": "RRIRARPPRLPRPRPRPGHFPRP", "shrunken log2 fold change": 0.0329},
      {"sequence": "RRIRPRPPRLPRPRPRPCRIPRP", "shrunken log2 fold change": -0.00277},
      {"sequence": "RRIRSRPPRLPRPRPRPGVIPRP", "shrunken log2 fold change": -0.0412},
      {"sequence": "RRIRHRPPRLPRPRPRPMFDPRP", "shrunken log2 fold change": 0.108},
      {"sequence": "RRIRVRPPRLPRPRPRPTAGPRP", "shrunken log2 fold change": -0.0283},
      {"sequence": "RRIRRRPPRLPRPRPRPQRKPRP", "shrunken log2 fold change": 0.347},
      {"sequence": "RRIRWRPPRLPRPRPRPCVRPRP", "shrunken log2 fold change": 0.0233},
      {"sequence": "RRIRQRPPRLPRPRPRPRNKPRP", "shrunken log2 fold change": -0.68},
      {"sequence": "RRIRTRPPRLPRPRPRPPFEPRP", "shrunken log2 fold change": 0.156},
      {"sequence": "RRIRPRPPRLPRPRPRPKHPPRP", "shrunken log2 fold change": 0.995},
      {"sequence": "RRIRNRPPRLPRPRPRPTNWPRP", "shrunken log2 fold change": 0.31},
      {"sequence": "RRIRNRPPRLPRPRPRPALPPRP", "shrunken log2 fold change": 0.248},
      {"sequence": "RRIRVRPPRLPRPRPRPCLNPRP", "shrunken log2 fold change": -0.193},
      {"sequence": "RRIRPRPPRLPRPRPRPRKCPRP", "shrunken log2 fold change": 0.0115},
      {"sequence": "RRIRERPPRLPRPRPRPVCLPRP", "shrunken log2 fold change": -0.0994},
      {"sequence": "RRIRIRPPRLPRPRPRPTPYPRP", "shrunken log2 fold change": -0.44},
      {"sequence": "RRIRIRPPRLPRPRPRPYYTPRP", "shrunken log2 fold change": -0.389},
      {"sequence": "RRIRIRPPRLPRPRPRPLLRPRP", "shrunken log2 fold change": -0.239},
      {"sequence": "RRIRYRPPRLPRPRPRPKRQPRP", "shrunken log2 fold change": 0.00924},
      {"sequence": "RRIRRRPPRLPRPRPRPWRWPRP", "shrunken log2 fold change": 0.14},
      {"sequence": "RRIRERPPRLPRPRPRPLLIPRP", "shrunken log2 fold change": -0.437},
      {"sequence": "RRIRWRPPRLPRPRPRPYQNPRP", "shrunken log2 fold change": -0.847},
      {"sequence": "RRIRLRPPRLPRPRPRPCSFPRP", "shrunken log2 fold change": -0.051},
      {"sequence": "RRIRLRPPRLPRPRPRPWWRPRP", "shrunken log2 fold change": 0.197},
      {"sequence": "RRIRDRPPRLPRPRPRPIVVPRP", "shrunken log2 fold change": 0.218},
      {"sequence": "RRIRVRPPRLPRPRPRPGEIPRP", "shrunken log2 fold change": 0.0835},
      {"sequence": "RRIRCRPPRLPRPRPRPSVHPRP", "shrunken log2 fold change": -0.575},
      {"sequence": "RRIRYRPPRLPRPRPRPKNEPRP", "shrunken log2 fold change": -0.372},
      {"sequence": "RRIRWRPPRLPRPRPRPIGCPRP", "shrunken log2 fold change": 0.268},
      {"sequence": "RRIRCRPPRLPRPRPRPTINPRP", "shrunken log2 fold change": -0.783},
      {"sequence": "RRIRFRPPRLPRPRPRPDPKPRP", "shrunken log2 fold change": 0.117},
      {"sequence": "RRIRRRPPRLPRPRPRPRLEPRP", "shrunken log2 fold change": 0.508},
      {"sequence": "RRIRCRPPRLPRPRPRPDKSPRP", "shrunken log2 fold change": -1.38},
      {"sequence": "RRIRARPPRLPRPRPRPDITPRP", "shrunken log2 fold change": 0.491},
      {"sequence": "RRIRYRPPRLPRPRPRPGDEPRP", "shrunken log2 fold change": -0.0823},
      {"sequence": "RRIRRRPPRLPRPRPRPITQPRP", "shrunken log2 fold change": -0.0203},
      {"sequence": "RRIRSRPPRLPRPRPRPSYGPRP", "shrunken log2 fold change": -0.0636},
      {"sequence": "RRIRMRPPRLPRPRPRPWWAPRP", "shrunken log2 fold change": -0.0423},
      {"sequence": "RRIRIRPPRLPRPRPRPHWYPRP", "shrunken log2 fold change": -1.16},
      {"sequence": "RRIRMRPPRLPRPRPRPEINPRP", "shrunken log2 fold change": 2.85},
      {"sequence": "RRIRWRPPRLPRPRPRPQKLPRP", "shrunken log2 fold change": 0.0774},
      {"sequence": "RRIRIRPPRLPRPRPRPSQMPRP", "shrunken log2 fold change": -0.0716},
      {"sequence": "RRIRFRPPRLPRPRPRPSNNPRP", "shrunken log2 fold change": -0.702},
      {"sequence": "RRIRARPPRLPRPRPRPEFSPRP", "shrunken log2 fold change": 1.27},
      {"sequence": "RRIRYRPPRLPRPRPRPAWMPRP", "shrunken log2 fold change": -0.0583},
      {"sequence": "RRIRRRPPRLPRPRPRPNVIPRP", "shrunken log2 fold change": -0.265},
      {"sequence": "RRIRVRPPRLPRPRPRPWALPRP", "shrunken log2 fold change": -0.112},
      {"sequence": "RRIRNRPPRLPRPRPRPTCNPRP", "shrunken log2 fold change": -0.288},
      {"sequence": "RRIRSRPPRLPRPRPRPYFLPRP", "shrunken log2 fold change": -0.885},
      {"sequence": "RRIRIRPPRLPRPRPRPKDCPRP", "shrunken log2 fold change": -0.0124},
      {"sequence": "RRIRRRPPRLPRPRPRPNEFPRP", "shrunken log2 fold change": -0.0247},
      {"sequence": "RRIRARPPRLPRPRPRPWPAPRP", "shrunken log2 fold change": 0.17},
      {"sequence": "RRIRCRPPRLPRPRPRPQVNPRP", "shrunken log2 fold change": -0.246},
      {"sequence": "RRIRDRPPRLPRPRPRPYFYPRP", "shrunken log2 fold change": -0.793},
      {"sequence": "RRIRDRPPRLPRPRPRPYEYPRP", "shrunken log2 fold change": -0.17},
      {"sequence": "RRIRNRPPRLPRPRPRPKLFPRP", "shrunken log2 fold change": 0.371},
      {"sequence": "RRIRQRPPRLPRPRPRPNVGPRP", "shrunken log2 fold change": -0.0447},
      {"sequence": "RRIRARPPRLPRPRPRPRVIPRP", "shrunken log2 fold change": -0.0156},
      {"sequence": "RRIRQRPPRLPRPRPRPVSRPRP", "shrunken log2 fold change": -0.00586},
      {"sequence": "RRIRQRPPRLPRPRPRPIMTPRP", "shrunken log2 fold change": -0.107},
      {"sequence": "RRIRNRPPRLPRPRPRPPAHPRP", "shrunken log2 fold change": 0.626},
      {"sequence": "RRIRCRPPRLPRPRPRPFEMPRP", "shrunken log2 fold change": -0.36},
      {"sequence": "RRIRIRPPRLPRPRPRPEEPPRP", "shrunken log2 fold change": -0.0444}
    ]}
  ]
}
